Tests used:
Grb2 SH2 = Grb2 SH2 (UniProt P62993); assay: SH2 binding enrichment of the phosphorylated peptide, bacterial display (enrichment ratio); higher = better substrate or ligand; peptides without Tyr show the background
c-Src SH2 = assay: as above
SHP2-C SH2 = assay: as above
FGFR1 = FGFR1 (UniProt P11362); assay: phosphorylation enrichment, bacterial display (enrichment ratio); higher = better substrate or ligand; peptides without Tyr show the background
c-Src = assay: as above
EPHB2 = EPHB2 (UniProt P29323); assay: as above
Fes = Fes (UniProt P07332); assay: as above
Hck = Hck (UniProt P08631); assay: as above
Jak2 = Jak2 (UniProt O60674); assay: as above
Fer (mouse) = assay: as above
MERTK = MERTK (UniProt Q12866); assay: as above
c-Abl (mouse) = assay: as above
AncSZ = assay: as above
Fyn = Fyn (UniProt P06241); assay: as above
FGFR3 = FGFR3 (UniProt P22607); assay: as above
EPHB1 = EPHB1 (UniProt P54762); assay: as above
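Throughout, for SH2 binding enrichment of the phosphorylated peptide, bacterial display: peptide library displayed on the E. coli surface as eCPX fusions, selected cells deep-sequenced, score is each peptide's frequency after selection divided by its frequency in the input.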
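Throughout, for phosphorylation enrichment, bacterial display: 11-residue human phosphosite peptides and single-mutation variants displayed on the E. coli surface, counted by deep sequencing, each peptide's frequency after selection divided by its frequency in the unselected input library; frequency after pTyr selection over input frequency; kinase dosed for 20-30% of maximal phosphorylation in three min.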

EPHB1, sequence (P54762 whole entry, looked up, the tested form may be a part): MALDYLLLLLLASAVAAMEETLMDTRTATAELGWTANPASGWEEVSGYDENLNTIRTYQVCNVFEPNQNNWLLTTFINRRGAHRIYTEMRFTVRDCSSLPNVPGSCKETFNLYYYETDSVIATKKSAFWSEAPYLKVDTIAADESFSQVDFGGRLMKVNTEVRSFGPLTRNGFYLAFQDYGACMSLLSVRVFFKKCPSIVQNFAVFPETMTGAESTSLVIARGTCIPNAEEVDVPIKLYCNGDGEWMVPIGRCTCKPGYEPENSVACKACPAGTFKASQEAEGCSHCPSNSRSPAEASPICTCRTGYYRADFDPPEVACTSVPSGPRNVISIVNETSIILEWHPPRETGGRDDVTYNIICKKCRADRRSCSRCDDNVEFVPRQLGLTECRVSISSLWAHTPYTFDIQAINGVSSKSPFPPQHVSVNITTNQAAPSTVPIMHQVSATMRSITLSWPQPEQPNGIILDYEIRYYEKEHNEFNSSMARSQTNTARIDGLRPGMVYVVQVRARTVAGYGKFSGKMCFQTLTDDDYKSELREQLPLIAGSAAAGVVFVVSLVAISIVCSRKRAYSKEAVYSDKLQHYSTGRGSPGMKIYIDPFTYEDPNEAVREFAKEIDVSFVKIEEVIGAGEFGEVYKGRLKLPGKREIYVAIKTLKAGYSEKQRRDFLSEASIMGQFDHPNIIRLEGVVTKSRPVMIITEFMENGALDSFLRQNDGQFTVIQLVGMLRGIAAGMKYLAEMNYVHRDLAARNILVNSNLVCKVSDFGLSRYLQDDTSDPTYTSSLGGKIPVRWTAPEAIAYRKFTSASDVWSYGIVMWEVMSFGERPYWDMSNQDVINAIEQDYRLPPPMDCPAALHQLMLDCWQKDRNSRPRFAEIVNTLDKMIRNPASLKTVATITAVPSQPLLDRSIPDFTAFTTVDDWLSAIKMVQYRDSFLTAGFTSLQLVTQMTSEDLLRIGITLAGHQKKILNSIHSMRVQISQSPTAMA
Jak2, sequence (O60674 whole entry, looked up): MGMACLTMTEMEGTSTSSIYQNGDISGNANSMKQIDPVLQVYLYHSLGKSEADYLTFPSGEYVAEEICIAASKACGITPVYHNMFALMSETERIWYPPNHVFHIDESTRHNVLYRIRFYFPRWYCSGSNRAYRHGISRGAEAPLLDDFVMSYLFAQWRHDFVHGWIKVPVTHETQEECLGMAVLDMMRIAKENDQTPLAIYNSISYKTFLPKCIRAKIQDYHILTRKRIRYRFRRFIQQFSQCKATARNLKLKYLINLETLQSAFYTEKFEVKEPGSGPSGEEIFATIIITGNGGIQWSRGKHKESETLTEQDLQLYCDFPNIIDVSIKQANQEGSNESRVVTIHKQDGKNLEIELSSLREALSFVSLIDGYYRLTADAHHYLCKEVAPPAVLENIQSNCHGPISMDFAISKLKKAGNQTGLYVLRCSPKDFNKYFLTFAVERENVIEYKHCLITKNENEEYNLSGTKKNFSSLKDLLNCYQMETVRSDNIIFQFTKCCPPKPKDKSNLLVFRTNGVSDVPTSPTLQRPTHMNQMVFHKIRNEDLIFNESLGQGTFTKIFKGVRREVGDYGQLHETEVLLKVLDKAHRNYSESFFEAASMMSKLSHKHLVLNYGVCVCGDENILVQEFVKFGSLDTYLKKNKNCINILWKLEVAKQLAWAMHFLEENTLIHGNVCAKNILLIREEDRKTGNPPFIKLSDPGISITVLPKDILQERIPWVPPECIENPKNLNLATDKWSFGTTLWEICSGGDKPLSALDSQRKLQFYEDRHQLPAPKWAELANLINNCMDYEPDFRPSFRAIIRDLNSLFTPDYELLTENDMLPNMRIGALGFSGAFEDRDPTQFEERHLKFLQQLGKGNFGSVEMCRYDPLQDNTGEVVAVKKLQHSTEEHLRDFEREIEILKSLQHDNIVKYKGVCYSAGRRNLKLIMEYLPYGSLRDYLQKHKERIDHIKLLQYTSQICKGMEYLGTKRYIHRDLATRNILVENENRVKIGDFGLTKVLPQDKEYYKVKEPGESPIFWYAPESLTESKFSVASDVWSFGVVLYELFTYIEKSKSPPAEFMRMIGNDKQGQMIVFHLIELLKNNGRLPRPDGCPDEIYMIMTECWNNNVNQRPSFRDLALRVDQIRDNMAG
FGFR3, sequence (P22607 whole entry, looked up): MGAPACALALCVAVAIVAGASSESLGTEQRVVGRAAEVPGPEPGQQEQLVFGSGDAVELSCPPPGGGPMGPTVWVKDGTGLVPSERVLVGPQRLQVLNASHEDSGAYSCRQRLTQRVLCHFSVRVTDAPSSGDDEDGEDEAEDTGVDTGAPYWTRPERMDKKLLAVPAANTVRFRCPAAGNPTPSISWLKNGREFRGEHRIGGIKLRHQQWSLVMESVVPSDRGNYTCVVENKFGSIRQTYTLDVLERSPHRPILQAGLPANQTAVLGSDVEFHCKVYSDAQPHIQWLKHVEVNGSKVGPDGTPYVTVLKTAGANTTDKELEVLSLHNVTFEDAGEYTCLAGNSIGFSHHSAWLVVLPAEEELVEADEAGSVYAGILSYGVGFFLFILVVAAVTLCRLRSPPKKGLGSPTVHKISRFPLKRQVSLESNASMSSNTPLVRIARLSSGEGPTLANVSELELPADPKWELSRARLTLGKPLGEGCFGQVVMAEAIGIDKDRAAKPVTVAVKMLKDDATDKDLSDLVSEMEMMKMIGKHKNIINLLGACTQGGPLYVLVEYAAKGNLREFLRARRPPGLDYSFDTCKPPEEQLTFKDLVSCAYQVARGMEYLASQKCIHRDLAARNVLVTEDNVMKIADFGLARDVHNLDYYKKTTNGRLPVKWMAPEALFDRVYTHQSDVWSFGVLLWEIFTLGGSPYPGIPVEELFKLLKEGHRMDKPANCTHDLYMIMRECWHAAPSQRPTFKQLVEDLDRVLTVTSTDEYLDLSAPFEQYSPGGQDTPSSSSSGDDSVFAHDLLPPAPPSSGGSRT
Hck, sequence (P08631 whole entry, looked up): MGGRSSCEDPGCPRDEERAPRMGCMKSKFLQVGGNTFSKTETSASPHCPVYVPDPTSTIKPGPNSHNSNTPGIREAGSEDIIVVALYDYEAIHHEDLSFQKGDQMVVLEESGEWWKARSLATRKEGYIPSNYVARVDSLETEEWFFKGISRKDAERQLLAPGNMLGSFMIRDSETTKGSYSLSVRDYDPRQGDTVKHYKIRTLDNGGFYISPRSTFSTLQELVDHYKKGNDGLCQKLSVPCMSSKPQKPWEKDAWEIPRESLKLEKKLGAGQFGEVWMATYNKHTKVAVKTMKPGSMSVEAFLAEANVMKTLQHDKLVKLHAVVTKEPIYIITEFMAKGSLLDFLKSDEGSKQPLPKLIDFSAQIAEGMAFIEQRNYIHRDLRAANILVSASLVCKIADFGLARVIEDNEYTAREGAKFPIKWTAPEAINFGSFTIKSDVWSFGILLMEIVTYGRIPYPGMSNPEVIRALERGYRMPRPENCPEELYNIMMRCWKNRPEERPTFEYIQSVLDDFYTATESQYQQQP
EPHB2, sequence (P29323 whole entry, looked up): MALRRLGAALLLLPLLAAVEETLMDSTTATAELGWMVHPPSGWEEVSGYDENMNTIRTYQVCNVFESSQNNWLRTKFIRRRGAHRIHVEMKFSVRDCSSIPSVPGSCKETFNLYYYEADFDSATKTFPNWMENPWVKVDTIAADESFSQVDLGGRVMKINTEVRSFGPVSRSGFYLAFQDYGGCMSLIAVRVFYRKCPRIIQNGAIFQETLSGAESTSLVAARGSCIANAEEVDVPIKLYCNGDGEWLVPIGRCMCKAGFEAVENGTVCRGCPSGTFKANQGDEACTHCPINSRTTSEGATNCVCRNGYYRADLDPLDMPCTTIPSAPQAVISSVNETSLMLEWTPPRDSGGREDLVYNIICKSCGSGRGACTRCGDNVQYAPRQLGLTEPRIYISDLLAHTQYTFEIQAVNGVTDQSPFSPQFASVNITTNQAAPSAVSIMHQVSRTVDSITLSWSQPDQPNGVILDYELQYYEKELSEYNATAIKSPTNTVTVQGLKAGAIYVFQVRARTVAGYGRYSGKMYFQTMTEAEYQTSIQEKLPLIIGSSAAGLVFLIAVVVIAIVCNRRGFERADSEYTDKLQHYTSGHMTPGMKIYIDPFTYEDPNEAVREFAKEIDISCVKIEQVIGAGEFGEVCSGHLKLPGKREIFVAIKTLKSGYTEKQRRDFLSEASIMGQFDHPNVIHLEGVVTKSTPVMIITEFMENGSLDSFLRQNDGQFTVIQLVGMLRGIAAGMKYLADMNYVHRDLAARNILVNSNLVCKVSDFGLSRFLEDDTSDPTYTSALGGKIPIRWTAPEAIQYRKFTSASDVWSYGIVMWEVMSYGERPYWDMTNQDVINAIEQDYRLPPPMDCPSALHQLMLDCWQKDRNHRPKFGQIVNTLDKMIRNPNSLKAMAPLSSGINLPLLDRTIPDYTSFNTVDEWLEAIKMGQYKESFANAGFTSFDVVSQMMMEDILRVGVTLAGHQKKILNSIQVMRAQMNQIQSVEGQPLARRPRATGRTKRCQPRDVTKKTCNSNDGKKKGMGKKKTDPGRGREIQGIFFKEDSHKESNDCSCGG
Fyn, sequence (P06241 whole entry, looked up): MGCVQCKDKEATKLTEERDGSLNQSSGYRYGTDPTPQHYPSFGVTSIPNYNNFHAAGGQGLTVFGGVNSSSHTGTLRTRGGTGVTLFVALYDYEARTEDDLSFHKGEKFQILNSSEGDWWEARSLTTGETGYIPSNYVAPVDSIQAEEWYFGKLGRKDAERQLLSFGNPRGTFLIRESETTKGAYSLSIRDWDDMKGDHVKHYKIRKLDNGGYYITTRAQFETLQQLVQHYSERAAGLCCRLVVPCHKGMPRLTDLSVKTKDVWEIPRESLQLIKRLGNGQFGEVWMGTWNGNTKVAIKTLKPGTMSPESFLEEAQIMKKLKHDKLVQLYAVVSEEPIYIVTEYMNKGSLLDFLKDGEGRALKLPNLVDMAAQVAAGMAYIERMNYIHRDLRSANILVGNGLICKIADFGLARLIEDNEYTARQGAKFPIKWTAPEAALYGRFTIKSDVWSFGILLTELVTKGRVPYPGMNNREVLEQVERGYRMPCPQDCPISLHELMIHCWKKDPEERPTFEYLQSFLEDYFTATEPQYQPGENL

Sequence	SH2 binding enrichment (Grb2 SH2)	SH2 binding enrichment (c-Src SH2)	SH2 binding enrichment (SHP2-C SH2)	phosphorylation enrichment (FGFR1)	phosphorylation enrichment (c-Src)	phosphorylation enrichment (EPHB2)	phosphorylation enrichment (Fes)	phosphorylation enrichment (Hck)	phosphorylation enrichment (Jak2)	phosphorylation enrichment (Fer (mouse))	phosphorylation enrichment (MERTK)	phosphorylation enrichment (c-Abl (mouse))	phosphorylation enrichment (AncSZ)	phosphorylation enrichment (Fyn)	phosphorylation enrichment (FGFR3)	phosphorylation enrichment (EPHB1)
MKVPLYETPAG [PGM5_Y358_V357L]	1.01	1.08	1.69	0.52	1.81	27.8	1.06	6.03	0.767	16.7	9.79	11.2	1.64	1.82	0.632	19.4
WHFTFYNELRV [ACTC1_Y93_H90Y_YF]	0.782	0.535	0.483	0.542	0.42	0.671	1.5	0.635	1.2	0.578	0.392	1.27	1.42	0.413	1.07	0.784
RGRSTYYWPRP [GAGE12J_Y9]	0.8	0.501	0.55	0.742	0.494	0.707	0.546	0.762	0.715	0.607	0.98	0.859	0.869	0.68	0.869	0.656
EMTAEYTCTRK [ACAD9_Y325_A326T]	0.632	0.41	0.638	0.654	0.477	0.607	0.974	0.699	0.757	0.513	0.465	0.636	1.14	0.624	0.636	0.674
HSPLRYTSILT [OR51B6_Y130_R125H]	1.21	5.39	9.46	1.19	0.574	0.602	1.4	0.683	0.807	0.892	0.634	0.547	0.915	0.823	0.849	0.782
NLMPAYHKCIQ [CYP21A2_Y190_Y191H]	0.878	0.65	0.5	0.493	0.501	0.586	1.01	0.521	0.969	0.507	0.518	0.71	0.91	0.519	0.707	0.501
YAGRDYSLDEF [MYOF_Y1705_G1701A]	0.757	0.909	0.665	0.54	0.878	0.536	1.14	0.549	1.37	0.588	0.52	0.928	1.06	0.595	0.686	0.658
PRIKTYMRPSP [TDP1_Y497_H493R]	1.04	0.842	0.948	0.451	0.474	0.465	0.65	0.36	0.49	0.378	0.44	0.425	0.493	0.366	0.522	0.317
EEKKKYYDAKI [CASP5_Y103_T106A]	1.28	0.521	1.02	0.529	0.396	0.432	0.764	0.411	0.848	0.447	0.429	0.565	0.626	0.371	0.518	0.467
LNARHYGGLTG [PGAM2_Y92_E89A]	0.779	0.446	0.656	0.567	0.631	0.3	0.573	0.542	0.606	0.634	0.44	0.668	0.585	0.301	0.513	0.376
KSVLVYRNGDP [DCDC2_Y22]	0.972	0.622	0.829	0.362	0.4	0.401	0.617	0.405	0.55	0.435	0.355	0.446	0.539	0.426	0.449	0.431
SLTRLYVGENA [NLRP3_Y861]	0.806	0.438	0.452	0.485	0.357	0.521	0.703	0.554	0.494	0.444	0.34	0.496	0.725	0.424	0.517	0.357
NLAAQYTTVGR [SGSH_Y240_D235N]	0.655	4.5	1.92	0.376	0.494	0.312	0.489	0.568	0.414	0.36	0.438	0.416	0.444	0.401	0.375	0.304
AKAEICEMRPL [COX10_Y97_Y97C]	1.01	0.679	0.798	0.593	0.533	0.516	0.921	0.608	0.716	0.602	0.437	0.738	0.709	0.389	0.477	0.469
PTYENYANSTQ [SLC12A3_Y70_H69N]	19.9	2.96	0.728	0.593	5.43	3.36	0.743	2.12	0.518	0.69	0.927	0.418	1.06	4.03	0.555	4.39
GYYDLYGGEKF [PTPN11_Y66_D61G]	0.939	3.86	0.778	10.9	4.54	9.35	0.931	6.7	3.15	3.13	6.61	0.68	1.3	7.27	8.65	3.27
IHFAIYLLKFS [ARMC9_Y107_YF]	1.69	1.13	1.45	0.363	0.499	0.457	1.06	0.521	1.03	0.303	0.414	0.668	0.891	0.458	0.684	0.561

Sequence	SH2 binding enrichment (Grb2 SH2)	SH2 binding enrichment (c-Src SH2)	SH2 binding enrichment (SHP2-C SH2)	phosphorylation enrichment (FGFR1)	phosphorylation enrichment (c-Src)	phosphorylation enrichment (EPHB2)	phosphorylation enrichment (Fes)	phosphorylation enrichment (Hck)	phosphorylation enrichment (Jak2)	phosphorylation enrichment (Fer (mouse))	phosphorylation enrichment (MERTK)	phosphorylation enrichment (c-Abl (mouse))	phosphorylation enrichment (AncSZ)	phosphorylation enrichment (Fyn)	phosphorylation enrichment (FGFR3)	phosphorylation enrichment (EPHB1)
GGFTWYCDGKK [PROS1_Y266_C265W_YF]	0.761	0.37	0.511	0.432	0.299	0.605	1.23	0.389	1.2	0.438	0.29	0.928	1.08	0.328	0.833	0.651
SIVEDYRPPFF [ACVRL1_Y421_G416S_YF]	0.83	0.444	0.73	0.435	0.45	0.46	1.01	0.38	0.85	0.485	0.473	0.821	1.01	0.378	0.646	0.578
KRLYAYKMLMA [TMC2_Y209_Q205R]	1.83	1.84	1.68	0.453	0.399	0.493	0.869	0.436	0.675	0.42	0.348	0.684	0.731	0.327	0.568	0.492
FTHSDYQFSQR [PKP2_Y166_YF]	1	0.62	0.723	0.458	0.455	0.538	0.764	0.508	0.589	0.594	0.383	0.619	0.828	0.63	0.646	0.435
AKAFIYASHIV [ZNF573_Y229_G224A]	0.82	0.637	0.724	0.561	1.53	0.771	1.08	0.842	0.908	1.57	0.501	1.44	0.962	1	0.965	0.7
GVYSRHFTTYD [CLCA1_Y661_Y661H]	0.713	0.477	0.714	0.389	0.768	0.473	0.657	1.31	0.507	0.642	0.569	0.359	0.823	0.648	0.508	0.495
EILLSYLRTGF [TGM1_Y365_YF]	1.26	0.64	0.974	0.433	0.394	0.967	0.943	0.41	0.981	0.411	0.387	0.492	1.05	0.401	0.619	0.418
YRRITYYNWRH [PDE6B_Y556_H557Y]	0.742	0.547	0.562	0.497	0.47	0.457	0.549	0.46	0.47	0.442	0.512	0.539	0.64	0.483	0.598	0.417
RHPLDYLRQYP [NARS2_Y138_E137D]	1.36	0.894	1.71	0.405	0.411	0.96	1.15	0.753	1.01	0.594	0.509	0.627	0.914	0.547	0.694	0.799
LLKAGYHGVLR [TTPA_Y100]	1.45	1.05	1.25	0.646	0.906	0.562	1.35	0.453	0.903	0.671	0.631	0.926	0.964	0.693	0.679	0.686
YIPFRYPKEFQ [IDS_Y234_H229Y]	0.768	0.572	0.602	0.748	0.768	0.485	0.656	0.831	0.477	0.425	0.554	0.464	0.777	0.644	0.658	0.464
TTPYNYSYIFK [RAB14_Y8_A4T]	0.711	10.3	2.78	1.24	0.712	2.71	0.658	0.861	0.655	0.97	5.37	0.706	0.895	0.593	0.893	9.01
CWAVKYLQMVG [AVPR2_Y117_R113W]	1.26	0.92	1.2	0.495	0.434	0.832	1.39	0.466	1.26	0.504	0.386	0.817	1.37	0.413	0.703	0.622
FFFDLYGGEKF [PTPN11_Y66_D61Y_YF]	0.831	0.631	1.36	0.415	1.15	0.418	0.979	0.981	0.993	0.418	0.371	0.665	0.923	0.66	0.534	0.53
EEGESDVCSSD [DCX_Y125_Y125D]	0.922	0.699	0.924	0.497	0.518	0.507	0.939	0.457	0.797	0.479	0.495	0.621	1.04	0.505	0.544	0.525
LDYNEYFRGLN [HPRT1_Y198_D201G]	0.865	0.445	0.812	2.77	0.892	1.37	1.95	2.6	3.42	1.06	0.733	0.847	2.67	1.6	1.85	1.28

Reference: the supplement of paper PMC10065799, “High-throughput profiling of sequence recognition by tyrosine kinases and SH2 domains using bacterial peptide display” (eLife, 2023)
